Patent US20210147564A1 (TENEOBIO, published 2021)
Substitutions are numbered along the chain they refer to. Blank lines part the entries; values can stand above or below the binder they belong to.

Assays:
[1] = target: T1, human BCMA on NCI-H929 cells (human, UniProt Q02223 1-184); experiment: flow cytometry on H929 cells
T1 construct: whole, on cells; also called H929 human cells that express BCMA; BCMA-expressing cell line (H929)
T1 sequence (looked up): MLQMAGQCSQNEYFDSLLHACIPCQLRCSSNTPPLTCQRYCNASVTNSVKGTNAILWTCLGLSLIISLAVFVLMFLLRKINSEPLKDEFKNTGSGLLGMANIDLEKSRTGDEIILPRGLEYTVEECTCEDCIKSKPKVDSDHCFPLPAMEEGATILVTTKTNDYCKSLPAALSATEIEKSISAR
Protocol: Supernatants of the 4 test anti-BCMA antibodies were also tested by flow cytometry for binding to H929 cells. The samples were measured by flow cytometry using a Guava easyCyte 8HT instrument from EMD Millipore and analyzed using guavaSoft. Bound antibodies were detected with goat anti-human IgG F(ab)2 conjugated to PE (Southern Biotech 2042-09). All antibodies were diluted in PBS with 1% BSA. Positive staining was determined by comparison to staining with a human IgG1 isotype control.

[2] = target: T2, human BCMA ECD protein (Abcam ab50089) (human, UniProt Q02223 1-54); experiment: ELISA on human BCMA ECD; Octet off-rate
T2 construct: extracellular domain; Bought protein; also called human BCMA protein; recombinant BCMA protein
T2 sequence (looked up): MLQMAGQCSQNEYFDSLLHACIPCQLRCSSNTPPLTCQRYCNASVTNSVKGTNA
Protocol: Supernatants of 4 antibodies were tested for binding in a standard ELISA assay to human and cynomolgus BCMA. Binding to recombinant BCMA protein was determined by ELISA using human BCMA ECD obtained from Abcam (ab50089). The BCMA ECD protein was used at a concentration of […] to capture UniAbs at 50 ng/mL. Binding of UniAbs was detected with a goat anti-human IgG HRP conjugated antibody (ThermoFisher 31413). All antibodies were diluted in 1×TBS with 0.05% Tween-20 and 1% dry milk powder.

- binding result [1]: binds
- binding result [2]: binds
B1: heavy chain-only anti-BCMA antibody (UniAb) with the heavy chain variable region of SEQ ID NO: 15 (antibody, V domains shown)
VH: EVQLLESGGGLVQPGGSLRLSCAASGFTFSSYAMSWVRQAPGKGLEWVSSISGSGDYIYYADSVKGRFTISRDISKNTLYLQMNSLRAEDTAVYYCAKEGTGANSSLADYRGQGTLVTVSS
notes: Heavy chain-only antibody expressed in HEK cells (CH1 deleted, no light chain), tested as supernatant; also called anti-BCMA UniAb; HCAb

- binding result [1]: binds
- binding result [2]: binds
B2: heavy chain-only anti-BCMA antibody (UniAb) with the heavy chain variable region of SEQ ID NO: 12 (antibody, V domains shown)
VH: QVQLVESGGGLVQPGGSLRLSCAASGFTFTNHAMSWVRQAPGKGLELVSSISGNGRTTYYADSVKGRFTISRDISKNTLDLQMNSLRAEDTAVYYCAKDGGETLVDSRGQGTLVTVSS
notes: as for B1

- binding result [1]: binds
- binding result [2]: binds
B3: heavy chain-only anti-BCMA antibody (UniAb) with the heavy chain variable region of SEQ ID NO: 13 (antibody, V domains shown)
VH: QVQLVESGGGLVQPGGSLRLSCAASGFTFSSHAMTWVRQAPGKGLEWVAAISGSGDFTHYADSVKGRFTISRDNSKNTVSLQMNNLRAEDTAVYYCAKDEDGGSLLGYRGQGTLVTVSS
notes: as for B1

- binding result [1]: binds
- binding result [2]: binds
B4: heavy chain-only anti-BCMA antibody (UniAb) with the heavy chain variable region of SEQ ID NO: 14 (antibody, V domains shown)
VH: B3 VH with Q1E, V5L, V12I, A49S, F57Y, S80Y, N85S, T91S, Y108H
notes: as for B1
